The values that follow come from PMC4546058, “The Energetics of Streptococcal Enolase Octamer Formation: The Quantitative Contributions of the Last Eight Amino Acids at the Carboxy-Terminus” (PLoS ONE, 2015).

This series concerns the molecule itself. Description: AUC; sedimentation velocity, Beckman XL-I, 20°C, 30 000-37 000 RPM, TME-SO4 (50 mM Tris, 1 mM MgSO4, 0.1 mM EDTA, 44 mN H2SO4, pH 7.4); c(s) in Sedfit; octamer to 8 monomers.

B1: Str enolase DB (Streptococcus pyogenes enolase, sequence of accession number NP_268959.1) (enzyme, UniProt P69949 1-435, looked up)
chain: MSIITDVYAREVLDSRGNPTLEVEVYTESGAFGRGMVPSGASTGEHEAVELRDGDKSRYLGLGTQKAVDNVNNIIAEAIIGYDVRDQQAIDRAMIALDGTPNKGKLGANAILGVSIAVARAAADYLEVPLYTYLGGFNTKVLPTPMMNIINGGSHSDAPIAFQEFMIMPVGAPTFKEGLRWGAEVFHALKKILKERGLVTAVGDEGGFAPKFEGTEDGVETILKAIEAAGYEAGENGIMIGFDCASSEFYDKERKVYDYTKFEGEGAAVRTSAEQVDYLEELVNKYPIITIEDGMDENDWDGWKVLTERLGKRVQLVGDDFFVTNTEYLARGIKENAANSILIKVNQIGTLTETFEAIEMAKEAGYTAVVSHRSGETEDSTIADIAVATNAGQIKTGSLSRTDRIAKYNQLLRIEDQLGEVAQYKGIKSFYNLKK
notes: PDB 3ZLH is the same protein with E77K; also called Streptococcal enolase; source: stored in saturated ammonium sulfate, dialyzed against TME-SO4
A word on the stoichiometry N: it is a count of units in the complex or per binding partner. B1: the “stoichiometry N” value is 8.
